For the test, the target named is Neuropilin-1 (Nrp-1), zebrafish (zebrafish) (UniProt Q8QFX6). The test can be described thus: cell-based or functional assay.
Sequence of UniProt Q8QFX6 (Q8QFX6 20-923 limits assumed): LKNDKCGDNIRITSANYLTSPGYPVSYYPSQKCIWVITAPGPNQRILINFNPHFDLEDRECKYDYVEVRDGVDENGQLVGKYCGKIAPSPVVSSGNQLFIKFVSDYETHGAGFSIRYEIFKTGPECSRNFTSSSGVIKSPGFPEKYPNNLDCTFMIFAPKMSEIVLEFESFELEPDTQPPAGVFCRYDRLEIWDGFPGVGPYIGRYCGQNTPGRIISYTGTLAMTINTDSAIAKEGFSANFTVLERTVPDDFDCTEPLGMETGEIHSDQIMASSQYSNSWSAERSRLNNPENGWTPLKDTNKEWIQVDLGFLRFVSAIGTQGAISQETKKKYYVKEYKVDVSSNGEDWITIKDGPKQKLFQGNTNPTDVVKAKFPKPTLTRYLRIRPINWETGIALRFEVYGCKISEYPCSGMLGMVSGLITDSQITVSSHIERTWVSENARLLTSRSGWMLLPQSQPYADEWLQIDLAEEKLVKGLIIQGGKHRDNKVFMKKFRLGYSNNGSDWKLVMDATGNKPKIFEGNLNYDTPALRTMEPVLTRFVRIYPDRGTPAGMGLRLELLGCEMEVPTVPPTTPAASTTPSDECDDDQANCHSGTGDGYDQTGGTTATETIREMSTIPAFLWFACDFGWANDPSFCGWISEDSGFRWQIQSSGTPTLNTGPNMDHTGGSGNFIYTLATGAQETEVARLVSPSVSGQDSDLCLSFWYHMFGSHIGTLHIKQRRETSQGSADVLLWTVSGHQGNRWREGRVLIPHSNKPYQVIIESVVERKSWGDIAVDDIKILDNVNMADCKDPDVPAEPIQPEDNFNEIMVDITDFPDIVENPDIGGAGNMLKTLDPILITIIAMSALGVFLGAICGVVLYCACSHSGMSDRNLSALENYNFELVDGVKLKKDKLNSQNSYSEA

Regarding “Vegfaa-165 R165E (zebrafish VEGF-A isoform 165 with arginine 165 changed to glutamic acid) (ligand)”, the Rescue percentage (embryos with blood flow circulation and without pericardial edema after mRNA injection into vegfaa-/- zebrafish) turned out to be 3%.

These data come from EP3216458A1.
